PMC11573789

B1: Upf1-SmBiT [S. cerevisiae] / Edc3 [S. cerevisiae] (parent)
chain 1: MVGSGSHTPYDISNSPSDVNVQPATQLNSTLVEDDDVDNQLFEEAQVTETGFRSPSASDNSCAYCGIDSAKCVIKCNSCKKWFCNTKNGTSSSHIVNHLVLSHHNVVSLHPDSDLGDTVLECYNCGRKNVFLLGFVSAKSEAVVVLLCRIPCAQTKNANWDTDQWQPLIEDRQLLSWVAEQPTEEEKLKARLITPSQISKLEAKWRSNKDATINDIDAPEEQEAIPPLLLRYQDAYEYQRSYGPLIKLEADYDKQLKESQALEHISVSWSLALNNRHLASFTLSTFESNELKVAIGDEMILWYSGMQHPDWEGRGYIVRLPNSFQDTFTLELKPSKTPPPTHLTTGFTAEFIWKGTSYDRMQDALKKFAIDKKSISGYLYYKILGHQVVDISFDVPLPKEFSIPNFAQLNSSQSNAVSHVLQRPLSLIQGPPGTGKTVTSATIVYHLSKIHKDRILVCAPSNVAVDHLAAKLRDLGLKVVRLTAKSREDVESSVSNLALHNLVGRGAKGELKNLLKLKDEVGELSASDTKRFVKLVRKTEAEILNKADVVCCTCVGAGDKRLDTKFRTVLIDESTQASEPECLIPIVKGAKQVILVGDHQQLGPVILERKAADAGLKQSLFERLISLGHVPIRLEVQYRMNPYLSEFPSNMFYEGSLQNGVTIEQRTVPNSKFPWPIRGIPMMFWANYGREEISANGTSFLNRIEAMNCERIITKLFRDGVKPEQIGVITPYEGQRAYILQYMQMNGSLDKDLYIKVEVASVDAFQGREKDYIILSCVRANEQQAIGFLRDPRRLNVGLTRAKYGLVILGNPRSLARNTLWNHLLIHFREKGCLVEGTLDNLQLCTVQLVRPQPRKTERPMNAQFNVESEMGDFPKFQDFDAQSMVSFSGQIGDFGNAFVDNTELSSYINNEYWNFENFKSAFSQKQNRNEIDDRNLYQEEASHLNSNFARELQREEQKHELSKDFSNLGI
chain 2: MSQFVGFGVQVELKDGKLIQGKIAKATSKGLTLNDVQFGDGGKSQAFKVRASRLKDLKVLTVASQSGKRKQQRQQQQQNDYNQNRGEHIDWQDDDVSKIKQQEDFDFQRNLGMFNKKDVFAQLKQNDDILPENRLQGHNRKQTQLQQNNYQNDELVIPDAKKDSWNKISSRNEQSTHQSQPQQDAQDDLVLEDDEHEYDVDDIDDPKYLPITQSLNITHLIHSATNSPSINDKTKGTVINDKDQVLAKLGQMIISQSRSNSTSLPAANKQTTIRSKNTKQNIPMATPVQLLEMESITSEFFSINSAGLLENFAVNASFFLKQKLGGRARLRLQNSNPEPLVVILASDSNRSGAKALALGRHLCQTGHIRVITLFTCSQNELQDSMVKKQTDIYKKCGGKIVNSVSSLESAMETLNSPVEIVIDAMQGYDCTLSDLAGTSEVIESRIKSMISWCNKQRGSTKVWSLDIPNGFDAGSGMPDIFFSDRIEATGIICSGWPLIAINNLIANLPSLEDAVLIDIGIPQGAYSQRTSLRKFQNCDLFVTDGSLLLDL
B2: Upf1-SmBiT [S. cerevisiae] / Dbp2 [S. cerevisiae] (parent)
chain 1: B1 chain 1
chain 2: MTYGGRDQQYNKTNYKSRGGDFRGGRNSDRNSYNDRPQGGNYRGGFGGRSNYNQPQELIKPNWDEELPKLPTFEKNFYVEHESVRDRSDSEIAQFRKENEMTISGHDIPKPITTFDEAGFPDYVLNEVKAEGFDKPTGIQCQGWPMALSGRDMVGIAATGSGKTLSYCLPGIVHINAQPLLAPGDGPIVLVLAPTRELAVQIQTECSKFGHSSRIRNTCVYGGVPKSQQIRDLSRGSEIVIATPGRLIDMLEIGKTNLKRVTYLVLDEADRMLDMGFEPQIRKIVDQIRPDRQTLMWSATWPKEVKQLAADYLNDPIQVQVGSLELSASHNITQIVEVVSDFEKRDRLNKYLETASQDNEYKTLIFASTKRMCDDITKYLREDGWPALAIHGDKDQRERDWVLQEFRNGRSPIMVATDVAARGIDVKGINYVINYDMPGNIEDYVHRIGRTGRAGATGTAISFFTEQNKGLGAKLISIMREANQNIPPELLKYDRRSYGGGHPRYGGGRGGRGGYGRRGGYGGGRGGYGGNRQRDGGWGNRGRSNY
B3: Upf1-SmBiT [S. cerevisiae] / Pat1 [S. cerevisiae] (parent)
chain 1: B1 chain 1
chain 2: MSFFGLENSGNARDGPLDFEESYKGYGEHELEENDYLNDETFGDNVQVGTDFDFGNPHSSGSSGNAIGGNGVGATARSYVAATAEGISGPRTDGTAAAGPLDLKPMESLWSTAPPPAMAPSPQSTMAPAPAPQQMAPLQPILSMQDLERQQRQMQQQFMNFHAMGHPQGLPQGPPQQQFPMQPASGQPGPSQFAPPPPPPGVNVNMNQMPMGPVQVPVQASPSPIGMSNTPSPGPVVGATKMPLQSGRRSKRDLSPEEQRRLQIRHAKVEKILKYSGLMTPRDKDFITRYQLSQIVTEDPYNEDFYFQVYKIIQRGGITSESNKGLIARAYLEHSGHRLGGRYKRTDIALQRMQSQVEKAVTVAKERPSKLKDQQAAAGNSSQDNKQANTVLGKISSTLNSKNPRRQLQIPRQQPSDPDALKDVTDSLTNVDLASSGSSSTGSSAAAVASKQRRRSSYAFNNGNGATNLNKSGGKKFILELIETVYEEILDLEANLRNGQQTDSTAMWEALHIDDSSYDVNPFISMLSFDKGIKIMPRIFNFLDKQQKLKILQKIFNELSHLQIIILSSYKTTPKPTLTQLKKVDLFQMIILKIIVSFLSNNSNFIEIMGLLLQLIRNNNVSFLTTSKIGLNLITILISRAALIKQDSSRSNILSSPEISTWNEIYDKLFTSLESKIQLIFPPREYNDHIMRLQNDKFMDEAYIWQFLASLALSGKLNHQRIIIDEVRDEIFATINEAETLQKKEKELSVLPQRSQELDTELKSIIYNKEKLYQDLNLFLNVMGLVYRDGEISELK

Variants of: B1
Test: NanoBiT (ratiometric protein-fragment complementation assay in live yeast)
Conditions: with Edc3 [S. cerevisiae]; four experimental replicates; read off a plot

Q: Which screen value does the source give for chain 1 C122S here?
A: -2.8 log2

Variants of: B2
Test: as above
Conditions: with Dbp2 [S. cerevisiae]; four experimental replicates; read off a plot

Q: For chain 1 C122S, which screen value is on record?
A: 2 log2

Variants of: B3
Test: as above
Conditions: with Pat1 [S. cerevisiae]; four experimental replicates; read off a plot

Q: Which screen value does the source give for chain 1 C122S here?
A: -1.6 log2
